Experimental data published in publication PMC8421216 (Nucleic Acids Research, 2020).
Where two headings read alike, the source gives them in different places.

Columns and labels:
[1] = biological target: T1, HD domain of Pumilio (Pum-HD) (Drosophila, UniProt P25822 1093-1426); assay: SEC + SEC-MALS
T1 sequence (looked up): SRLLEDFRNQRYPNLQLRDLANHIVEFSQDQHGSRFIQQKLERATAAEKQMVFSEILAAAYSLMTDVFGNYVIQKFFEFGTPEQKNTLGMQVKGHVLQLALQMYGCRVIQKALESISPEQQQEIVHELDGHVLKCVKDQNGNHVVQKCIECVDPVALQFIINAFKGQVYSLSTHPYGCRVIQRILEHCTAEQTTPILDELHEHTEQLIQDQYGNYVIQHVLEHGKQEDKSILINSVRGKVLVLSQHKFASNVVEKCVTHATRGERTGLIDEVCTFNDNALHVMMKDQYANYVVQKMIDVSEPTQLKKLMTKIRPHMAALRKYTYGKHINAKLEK

[2] = biological target: T2, Pum-HD (Drosophila melanogaster, UniProt P25822 1093-1426); assay: ITC
T2 sequence: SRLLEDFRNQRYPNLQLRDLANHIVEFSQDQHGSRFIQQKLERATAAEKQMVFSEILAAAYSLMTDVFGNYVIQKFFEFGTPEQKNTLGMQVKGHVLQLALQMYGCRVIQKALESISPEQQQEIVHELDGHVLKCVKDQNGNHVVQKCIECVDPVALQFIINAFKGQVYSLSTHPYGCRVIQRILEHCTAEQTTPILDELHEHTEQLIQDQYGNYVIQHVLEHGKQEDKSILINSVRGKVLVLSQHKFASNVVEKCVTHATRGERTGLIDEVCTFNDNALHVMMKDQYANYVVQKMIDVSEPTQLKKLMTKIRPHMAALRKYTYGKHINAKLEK

[3] = biological target: T2, Pum-HD; assay: ITC; remark: listed apart in the source
[4] = biological target: T2, Pum-HD; assay: ITC; remark: listed apart in the source
[5] = biological target: T3, Nanos-ZnF (Drosophila melanogaster, UniProt P25724 301-392); assay: ITC
T3 sequence: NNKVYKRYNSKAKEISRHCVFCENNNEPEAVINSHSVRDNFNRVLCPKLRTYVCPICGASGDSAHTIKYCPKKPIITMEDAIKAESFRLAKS

[6] = biological target: T2, Pum-HD; assay: ITC; remark: listed apart in the source
[7] = biological target: T2, Pum-HD; assay: ITC; remark: listed apart in the source
[8] = biological target: T4, Brat-NHL (Drosophila melanogaster, UniProt Q8MQJ9 756-1037); assay: ITC
T4 sequence: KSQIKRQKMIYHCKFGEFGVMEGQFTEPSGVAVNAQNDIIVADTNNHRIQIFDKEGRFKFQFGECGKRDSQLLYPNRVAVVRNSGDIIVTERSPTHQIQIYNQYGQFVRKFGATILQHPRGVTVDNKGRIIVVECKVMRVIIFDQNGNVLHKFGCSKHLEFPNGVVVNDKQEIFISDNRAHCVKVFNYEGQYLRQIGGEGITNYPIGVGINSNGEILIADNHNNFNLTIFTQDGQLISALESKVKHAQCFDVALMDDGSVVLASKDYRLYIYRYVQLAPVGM

[9] = biological target: T4, Brat-NHL; assay: ITC; remark: listed apart in the source
[10] = biological target: T4, Brat-NHL; assay: ITC; remark: listed apart in the source
[11] = biological target: T4, Brat-NHL; assay: ITC; remark: listed apart in the source
[12] = biological target: T5, Pum-HD;Brat-NHL;Nanos-ZnF (Drosophila melanogaster;Drosophila …, UniProt P25822;Q8MQJ9;P25724 1093-1426;756-1037;301-392, ||); assay: SEC-MALLS, NMR, SAXS/SANS
T5 sequence 1: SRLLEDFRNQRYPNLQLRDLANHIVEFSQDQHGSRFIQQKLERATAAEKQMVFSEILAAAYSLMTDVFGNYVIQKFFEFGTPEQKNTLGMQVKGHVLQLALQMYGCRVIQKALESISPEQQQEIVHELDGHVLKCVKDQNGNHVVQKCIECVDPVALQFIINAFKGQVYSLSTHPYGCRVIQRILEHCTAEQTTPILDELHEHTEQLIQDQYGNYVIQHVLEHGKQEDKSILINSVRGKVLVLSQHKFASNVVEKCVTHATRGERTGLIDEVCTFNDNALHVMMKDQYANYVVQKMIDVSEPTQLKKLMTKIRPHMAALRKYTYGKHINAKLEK
T5 sequence 2: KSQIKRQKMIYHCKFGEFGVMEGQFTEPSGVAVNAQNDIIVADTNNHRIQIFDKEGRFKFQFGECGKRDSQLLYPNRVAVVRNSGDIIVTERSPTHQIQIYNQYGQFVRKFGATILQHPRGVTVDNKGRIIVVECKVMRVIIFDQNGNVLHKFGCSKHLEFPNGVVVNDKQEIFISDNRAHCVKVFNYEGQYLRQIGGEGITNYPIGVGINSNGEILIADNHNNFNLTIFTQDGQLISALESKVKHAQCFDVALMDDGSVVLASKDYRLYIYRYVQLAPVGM
T5 sequence 3: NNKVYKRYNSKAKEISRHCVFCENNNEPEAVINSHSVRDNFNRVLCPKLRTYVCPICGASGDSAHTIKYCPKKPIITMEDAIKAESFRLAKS

[13] = biological target: T4, Brat-NHL; assay: ITC; remark: listed apart in the source
[14] = biological target: T4, Brat-NHL; assay: ITC; remark: listed apart in the source
[15] = biological target: T2, Pum-HD; assay: ITC; remark: listed apart in the source
[16] = biological target: T2, Pum-HD; assay: ITC; remark: listed apart in the source
[17] = biological target: T2, Pum-HD; assay: ITC; remark: listed apart in the source

B1: ZnF domain of Nanos (Nanos-ZnF) (domain or fragment, Drosophila, UniProt P25724 301-392, looked up)
chain: NNKVYKRYNSKAKEISRHCVFCENNNEPEAVINSHSVRDNFNRVLCPKLRTYVCPICGASGDSAHTIKYCPKKPIITMEDAIKAESFRLAKS
stoichiometry N [1]: 1

B2: BoxB (ssRNA)
RNA: UGUACAUA
Kd [2]: 2 ± 2 nM | Kd [3]: 6.6 ± 4 nM | Kd [4]: 8.1 ± 1.7 nM

B3: NRE2 (23-mer) (structured_RNA)
RNA: UUGUUGUCGAAAAUUGUACAUAA
binding result [5]: no binding | Kd [6]: 15 nM | Kd [7]: 2 nM | Kd [8]: 200 nM | Kd [9]: 900 nM | Kd [10]: 370 ± 100 nM | Kd [11]: 1400 nM | binding result [12]: binds | Kd [13]: 320 ± 100 nM | Kd [14]: 1200 ± 200 nM

B4: BoxA (ssRNA)
RNA: UUGUUG
Kd [10]: 1100 ± 300 nM | Kd [13]: 1000 ± 300 nM | binding result [15]: no binding | Kd [14]: 800 ± 200 nM

B5: NRE2 minus BoxB (ssRNA)
RNA: UUGUUGUCGAAAAU
Kd [2]: 1200 ± 80 nM | Kd [3]: 1000 ± 20 nM

B6: BoxAext (ssRNA)
RNA: UUGUUGUC
binding result [15]: no binding

B7: NRE2 minus BoxA (ssRNA)
RNA: UCGAAAAUUGUACAUAA
Kd [16]: 11 ± 0.6 nM | Kd [17]: 10 ± 0.3 nM
